Results: PMC12578633

B1: 326-366.26 (IgG1) (antibody, V domains shown)
VH: QMQLQESGPGLVKPSGTLSLTCAVSGGSISNSHWWSWVRQSPGKGLEWIGEIYHSGSTYYNPSLKSRLTISVDKSKNQFSLKLTSVTAADTAVYFCARGLGWEQGGYRAFDMWGQGTTVTVSS
VL: EIVMTQSPATLSVSPGERVTLSCRASQSVGSSLAWYQQKPGQAPRLLIYAASTRATGIPARFSGSGSGTEFTLTISSLQSEDFAVYYCQQHYNWPPLTFGGGTKVEIK
B2: 326-289.74 (IgG1) (antibody, V domains shown)
VH: QVQLVQSGAEVKKPGSSVKVSCKASGGTFSIYTFTWVRQAPGHGLEWMGGILPISGSAKYAQKFLGRVTITADESTSTVYMELSSLRSEDTAIYYCARDPYSNYFYGLDVWGQGTTVTVSS
VL: EIVLTQSPVTLSLSPGERATLSCRASQSVSRFLAWYQQKPGQAPRLLFYDASTRATGIPARFSGTGSGTDFTLTISGLEPEDFAVYYCQQRSNWPPEYSFGQGTKLEIK

Tests used:
[1] = target: H5 A/Cambodia/2302009/2023 HA ectodomain (influenza A virus H5N1 A/Cambodia/2302009/2023)
[2] = target: H5 A/Indonesia/05/2005 HA ectodomain (influenza A virus H5N1 A/Indonesia/05/2005)
[3] = target: H5 A/Victoria/149/2024 HA ectodomain (influenza A virus H5N1 A/Victoria/149/2024)
[4] = target: H5 A/Sichuan/26221/2014 HA ectodomain (influenza A virus H5N6 A/Sichuan/26221/2014)

Row | Binder | neutralization IC80, R4ΔPB1 reporter virus H5N1 A/Cambodia/2302009/2023 [1] [µg/mL] | neutralization IC80, R4ΔPB1 reporter virus H5N1 A/Indonesia/05/2005 [2] [µg/mL] | neutralization IC80, R4ΔPB1 reporter virus H5N1 A/Victoria/149/2024 [3] [µg/mL] | neutralization IC80, R4ΔPB1 reporter virus H5N6 A/Sichuan/26221/2014 [4] [µg/mL]
1 | B1 | > 25 | 0.009 | 0.193 | 0.008
2 | B2 | 0.133 | 0.014 | 0.335 | 0.006
